Results reported in paper PMC13577073, “Cryo-EM structure of the glycosylated protein CgeA in the crust of Bacillus subtilis endospores” (The Journal of Microbiology, 2025).
Numbering of substitutions follows the chain as printed. In names and notes the source's numbering stands.

B1: CgeA protein from Bacillus subtilis, wild type (natural protein, B. subtilis, UniProt P42089 1-133, looked up)
chain: MSSENAQLKKDLIKAVLSPLFPTATEGGENMDSNLKALLDAAIDQKVDESETVTAESILDPSLPARWIFARITPGTTISIVTDSGDMIGPVVFVAFDQVHGIVFVTQESSVTPAGQATTLIDVDKVESVTFFS
notes: CgeA, spore crust protein of B. subtilis; synthesized cgeA gene subcloned into NcoI/XhoI of pProEx-Hta; also called CgeA (WT); wild-type CgeA; source: E. coli BL21 (DE3), purified (Ni-NTA, TEV cleavage, HiTrap Q, Superdex 200); not shown: His6, N-terminal, cleaved
B2: CgeA A42C/D97C variant (natural protein, B. subtilis, UniProt P42089 1-133, looked up)
chain: B1 chain with A42C, D97C
notes: CgeA of B. subtilis with two cysteine mutations, made from pProEx-Hta-CgeA (WT) by QuikChange; residues 62-109 and 115-133 are modelled in the cryo-EM structure; The cysteines were designed to form a disulfide bond, which could not be seen unambiguously in the map; also called CgeA A42C/D97C mutant; CgeA mutant; source: E. coli BL21 (DE3), purified (Ni-NTA, TEV cleavage, HiTrap Q, Superdex 200); …

Legend:
[1] = target: the molecule itself; experiment: SEC-MALS; Superdex 200 Increase 10/300 GL; 20 mM Tris-HCl (pH 8.0), 150 mM NaCl; DAWN HELIOS II
[2] = target: the molecule itself; experiment: SEC; wild type and A42C/D97C mutant compared; Superdex 200 column calibrated with reference proteins

Protein	stoichiometry N [1]	stoichiometry N [2]
B1	6	–
B2	–	6
